Assay results as given in the supplement of paper PMC6757056.
± gives the standard deviation of the averaged measurements.

B1: library; a variant is named by its letters at N, in order (parent)
chain: GCUGUCACCGGUGUAUUACCCUAGUGGUCGACCGGUCUGAUGAGUCUNNNNNNAGACGAAACAGC

Columns and labels:
hypoxanthine [1] = variants of: B1; assay: FACS-Seq fitted mean relative fluorescence mCherry/BFP without ligand (log10 relative fluorescence); ligand: hypoxanthine (xanthine aptamer); higher = higher reporter protein expression; conditions: HEK293T, ligand present: no
How it was run: (§1)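 HEK293T libraries were lentivirally transduced with an mCherry reporter carrying the ribozyme switch and an EF1α-BFP marker, enriched, and incubated for 48 h with or without ligand before sorting into 6 bins by mCherry/BFP. Genomic DNA from each bin was PCR-amplified, barcoded and sequenced on MiSeq. Fluorescence is the fitted normal mean of the bin counts. The fit used log10(mCherry/BFP), and means were scaled to five spiked-in control ribozymes.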

hypoxanthine [2] = variants of: B1; assay: normalized RNA/DNA level with ligand (relative to sTRSVctl = 100) (log10 (% of sTRSVctl)); ligand: hypoxanthine (xanthine aptamer); higher = less ribozyme self-cleavage, higher mRNA level; conditions: ligand concentration (+) RNA-Seq: 5 mM, HEK293T, reporter: mCherry (pCS4076), ligand present: yes
Experimental: (§2)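 Hammerhead (sTRSV) ribozyme switch libraries with a ligand aptamer grafted on stem I and a randomized N4-6 loop II, cloned into the 3' UTR of mCherry and transiently transfected into HEK293T cells; RNA-Seq 72 h post transfection with ligand added 1 h before transfection; RNA read count / plasmid DNA read count normalized to the non-cleaving sTRSVctl (x100), log10; sequences with >100 DNA reads. FACS-Seq: lentiviral library sorted into 6 bins after 48 h ligand, log-normal fit mean of mCherry/BFP scaled to controls. Printed sequences are partial switch sequences.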

hypoxanthine [3] = variants of: B1; assay: normalized RNA/DNA level without ligand (relative to sTRSVctl = 100) (log10 (% of sTRSVctl)); ligand: hypoxanthine (xanthine aptamer); higher = less ribozyme self-cleavage, higher mRNA level; conditions: HEK293T, reporter: mCherry (pCS4076), ligand present: no
Experimental: as §2

hypoxanthine [4] = variants of: B1; assay: FACS-Seq fitted mean relative fluorescence mCherry/BFP with ligand (log10 relative fluorescence); ligand: hypoxanthine (xanthine aptamer); ligand concentration (+) FACS-Seq: 5 mM; higher = higher reporter protein expression; conditions: HEK293T, ligand present: yes
How it was run: as §1

Variant | FACS-Seq fitted mean (log10) (hypoxanthine [1]) | normalized RNA/DNA level with ligand (log10) (hypoxanthine [2]) | normalized RNA/DNA level without ligand (log10) (hypoxanthine [3]) | FACS-Seq fitted mean (log10) (hypoxanthine [4])
UAGAAG | 0.421 ± 0.0051 | 1.858 ± 0.0066 | 1.47 ± 0.022 | 0.577 ± 0.057
UAGAAC | 0.437 ± 0.028 | 1.93 ± 0.031 | 1.809 ± 0.014 | 0.578 ± 0.076
GACUGG | 0.157 ± 0.015 | 1.758 ± 0.0058 | 1.42 ± 0.045 | 0.6446 ± 0.0029
GAGUGC | 0.0552 ± 0.013 | 1.876 ± 0.005 | 1.501 ± 0.013 | 0.361 ± 0.045
GAGUGA | 0.22 ± 0.019 | 1.87 ± 0.066 | 1.453 ± 0.012 | 0.468 ± 0.065
GAGUGG | -0.253 ± 0.023 | 1.59 ± 0.12 | 1.13 ± 0.067 | 0.299 ± 0.042
GAGUGU | 0.458 ± 0.014 | 1.86 ± 0.036 | 1.6 ± 0.062 | 0.69 ± 0.053
AAGGGA | 0.273 ± 0.057 | 1.83 ± 0.035 | 1.44 ± 0.017 | 0.545 ± 0.02
AAGGGC | 0.365 ± 0.031 | 1.9146 ± 0.00071 | 1.75 ± 0.023 | 0.576 ± 0.022
AAGGGG | 0.115 ± 0.014 | 1.78 ± 0.031 | 1.203 ± 0.002 | 0.386 ± 0.1
AAGGGU | 0.236 ± 0.0092 | 1.835 ± 0.0086 | 1.54 ± 0.072 | 0.4 ± 0.093
AAGUCG | -0.00018 ± 0.0075 | 1.79 ± 0.11 | 1.187 ± 0.0065 | 0.661 ± 0.016
AAGUCA | 0.838 ± 0.069 | 1.9 ± 0.062 | 1.63 ± 0.062 | 0.608 ± 0.1
AAGUCU | -0.27 ± 0.07 | 1.91 ± 0.046 | 1.84 ± 0.053 | -0.266 ± 0.014
GAGAGG | 0.00193 ± 0.027 | 1.45 ± 0.017 | 1.01 ± 0.1 | 0.644 ± 0.032
GAGAGA | 0.257 ± 0.028 | 1.81 ± 0.02 | 1.34 ± 0.042 | 0.585 ± 0.043
GAGAGC | 0.164 ± 0.036 | 1.8 ± 0.033 | 1.27 ± 0.072 | 0.494 ± 0.031
GAGGAA | 0.318 ± 0.036 | 1.88 ± 0.032 | 1.54 ± 0.026 | 0.581 ± 0.073

Variant | FACS-Seq fitted mean (log10) (hypoxanthine [1]) | normalized RNA/DNA level with ligand (log10) (hypoxanthine [2]) | normalized RNA/DNA level without ligand (log10) (hypoxanthine [3]) | FACS-Seq fitted mean (log10) (hypoxanthine [4])
GAGGAC | 0.178 ± 0.038 | 1.91 ± 0.041 | 1.6478 ± 0.00029 | 0.308 ± 0.1
GAGGAG | 0.288 ± 0.028 | 1.65 ± 0.042 | 1.17 ± 0.068 | 0.643 ± 0.013
UAGUAG | 0.218 ± 0.026 | 1.86 ± 0.04 | 1.49 ± 0.058 | 0.441 ± 0.097
GAGCGG | -0.363 ± 0.054 | 1.64 ± 0.037 | 1.21 ± 0.073 | 0.0659 ± 0.25
GAGCGA | 0.291 ± 0.062 | 1.89 ± 0.03 | 1.497 ± 0.0043 | 0.54 ± 0.037
GAGCGC | 0.507 ± 0.012 | 1.89 ± 0.026 | 1.55 ± 0.017 | 0.556 ± 0.09
CAGGUA | -0.0109 ± 0.015 | 1.757 ± 0.016 | 1.57 ± 0.014 | 0.148 ± 0.04
GAGUUU | 0.34 ± 0.066 | 1.92 ± 0.058 | 1.83 ± 0.026 | 0.348 ± 0.13
GAGUUG | 0.0221 ± 0.018 | 1.62 ± 0.1 | 1.14 ± 0.038 | 0.503 ± 0.022
UAGUCA | 0.551 ± 0.061 | 1.944 ± 0.0025 | 1.853 ± 0.006 | 0.647 ± 0.03
UAGUCC | 0.327 ± 0.0056 | 1.97 ± 0.067 | 1.92 ± 0.023 | 0.646 ± 0.091
AAGACC | 0.483 ± 0.015 | 1.94 ± 0.029 | 1.9 ± 0.027 | 0.305 ± 0.21
AAGACG | -0.0743 ± 0.0055 | 1.67 ± 0.077 | 1.17 ± 0.027 | 0.587 ± 0.028
AAGACA | 0.332 ± 0.067 | 1.93 ± 0.067 | 1.675 ± 0.012 | 0.559 ± 0.0087
UACUUU | 0.0654 ± 0.07 | 1.97 ± 0.038 | 1.921 ± 0.0072 | 0.288 ± 0.041
AACUUU | 0.233 ± 0.078 | 1.92 ± 0.038 | 1.9 ± 0.058 | 0.348 ± 0.087
AACUUG | 0.597 ± 0.037 | 1.87 ± 0.027 | 1.54 ± 0.03 | 0.726 ± 0.1
AACUUA | 0.394 ± 0.02 | 1.9 ± 0.021 | 1.857 ± 0.013 | 0.581 ± 0.02
